Data: publication PMC3819363, “Post-Transcriptional Regulator Hfq Binds Catalase HPII: Crystal Structure of the Complex” (PLoS ONE, 2013)

Biological target: the molecule itself
Experiment: SDS-PAGE; samples in SDS buffer on a polyacrylamide gel; bands of the dissolved crystals identified by PMF MALDI-TOF; crystals heated at ~95°C for 5 min

B1: catalase HPII (endogenous, Escherichia coli) (enzyme, Escherichia coli (endogenous in E. coli), UniProt P21179 1-753, looked up)
chain: MSQHNEKNPHQHQSPLHDSSEAKPGMDSLAPEDGSHRPAAEPTPPGAQPTAPGSLKAPDTRNEKLNSLEDVRKGSENYALTTNQGVRIADDQNSLRAGSRGPTLLEDFILREKITHFDHERIPERIVHARGSAAHGYFQPYKSLSDITKADFLSDPNKITPVFVRFSTVQGGAGSADTVRDIRGFATKFYTEEGIFDLVGNNTPIFFIQDAHKFPDFVHAVKPEPHWAIPQGQSAHDTFWDYVSLQPETLHNVMWAMSDRGIPRSYRTMEGFGIHTFRLINAEGKATFVRFHWKPLAGKASLVWDEAQKLTGRDPDFHRRELWEAIEAGDFPEYELGFQLIPEEDEFKFDFDLLDPTKLIPEELVPVQRVGKMVLNRNPDNFFAENEQAAFHPGHIVPGLDFTNDPLLQGRLFSYTDTQISRLGGPNFHEIPINRPTCPYHNFQRDGMHRMGIDTNPANYEPNSINDNWPRETPPGPKRGGFESYQERVEGNKVRERSPSFGEYYSHPRLFWLSQTPFEQRHIVDGFSFELSKVVRPYIRERVVDQLAHIDLTLAQAVAKNLGIELTDDQLNITPPPDVNGLKKDPSLSLYAIPDGDVKGRVVAILLNDEVRSADLLAILKALKAKGVHAKLLYSRMGEVTADDGTVLPIAATFAGAPSLTVDAVIVPCGNIADIADNGDANYYLMEAYKHLKPIALAGDARKFKATIKIADQGEEGIVEADSADGSFMDELLTLMAAHRVWSRIPKIDKIPA
notes: catalase HPII of Escherichia coli, product of the katE gene, endogenous protein, printed molecular weight 84 kDa; residues 27-753 and one heme resolved in the map; Homotetramer, one heme per subunit; also called HPII tetramer; source: endogenous, E. coli overexpressing PomAB mutants
stoichiometry N: 2 subunits
